In US9605266, “Cell-specific internalizing RNA aptamers against human CCR5 and uses therefore” (CITY OF HOPE):

Tests used:
[1] = target: T1, C-C chemokine receptor type 5 (CCR5) (Homo sapiens, UniProt P51681 P51681:1-352); assay: cell_activity; HIV-1 R5 JR-FL p24 day 3; day 5 142.6 ± 41.3, day 7 79.3 ± 21.6; siRNA also contributes; settings: tags: endogenous on primary PBMC-CD4+ cells; label: Cy3 on aptamer-sense strand, Cy5 on antisense strand; aptamer with UU linker and siRNA duplex, 2-nt 3' overhang
[2] = target: T1, C-C chemokine receptor type 5 (CCR5); assay: cell_activity; HIV-1 R5 BaL p24 day 3; day 5 354.3 ± 113.3, day 7 >1000; settings: tags: endogenous on primary PBMC-CD4+ cells
Method: (§1) PBMCs were freshly isolated from healthy donors and CD8 cells were depleted as described above. After culture for 3 days in the activated T-cell culture medium containing interleukin-2, the cell-surface CCR5 level of PBMCs was detected by flow cytometry as described previously. HIV-1 protection assay was performed in 24-well tissue culture plates. Duplicate night-point dilution series of experimental RNAs were prepared and refolded in refolding buffer. PBMCs were washed once with pre-warmed PBS, and 4×10^5 PBMCs were seeded to each well of assay plates. Subsequently, experimental RNAs with different concentrations were added. Plates were incubated for 4-6 hours at 37° C. in a humidified 5% CO_2 incubator. Various viruses (R5 strains: JR-FL, Bal, MOI=0.01; or X4 strains: IIIB, NL4-3, MOI=0.001) were added into each well. After 24 hours incubation, the cells were gently washed with pre-warmed PBS to eliminate free viruses and were incubated sequentially at 37° C. in a humidified 5% CO_2 incubator.
(§2) The $IC50$ value of G-3 aptamer was indicated here. G-3 aptamers with different concentrations were incubated with primary PBMCs. After 4-6 hours incubation, various viruses (R5 strains: JR-FL, Bal; or X4 strains: IIIB, NL4-3) were added into each well. The culture supernatants were collected at different time points after infection for HIV-1 p24 antigen ELISA assay. […]

[3] = target: T1, C-C chemokine receptor type 5 (CCR5); assay: cell_activity; HIV-1 R5 JR-FL p24 day 3; day 5 232.6 ± 38.3, day 7 170.4 ± 47.0; X4 strains IIIB and NL4-3 not inhibited; settings: tags: endogenous on primary PBMC-CD4+ cells
Method: as §1, §2

[4] = target: T1, C-C chemokine receptor type 5 (CCR5); assay: cell_activity; HIV-1 R5 BaL p24 day 3; day 5 245.5 ± 35.76, day 7 243.2 ± 46.16; settings: tags: endogenous on in vivo generated human CD4+ T cells
[5] = target: T1, C-C chemokine receptor type 5 (CCR5); assay: flow; apparent Kd, live cells, RT 30 min, DPBS with 1 mM Ca2+/1 mM Mg2+ and tRNA; R2 0.95; reduced by CCR5 siRNA knockdown; no binding to CCR5-negative U373-Magi; settings: tags: U373-Magi-CCR5E cells
Method: Adherent cell lines (U373-Magi cells and U373-Magi-CCR5E cells) were washed with pre-warmed PBS and detached with Cell stripper. Suspension cell lines (CEM-NKr cells, CEM-NKr-CCR5 cells, and PBMCs) were washed twice with pre-warmed PBS. After counting the cells' number, the desired number of cells was resuspended in 100 µL binding buffer containing Cy3-labeled experimental RNA aptamers at different concentrations as shown. After incubation at room temperature for 30 min, cells were washed three times with 500 µL of pre-warmed binding buffer, and finally resuspended in 350 µL of DPBS for flow cytometry analysis (Flow cytometry core, City of Hope, CA). The dissociation constants were calculated using nonliner curve regression with a Graph Pad Prism 6.0.

[6] = target: T1, C-C chemokine receptor type 5 (CCR5); assay: cell_activity; HIV-1 R5 JR-FL p24 day 3; day 5 58.51 ± 11.22, day 7 17.09 ± 5.90; X4 NL4-3 not converged; settings: tags: endogenous on in vivo generated human CD4+ T cells

T1 sequence (P51681 whole entry, one chain of several): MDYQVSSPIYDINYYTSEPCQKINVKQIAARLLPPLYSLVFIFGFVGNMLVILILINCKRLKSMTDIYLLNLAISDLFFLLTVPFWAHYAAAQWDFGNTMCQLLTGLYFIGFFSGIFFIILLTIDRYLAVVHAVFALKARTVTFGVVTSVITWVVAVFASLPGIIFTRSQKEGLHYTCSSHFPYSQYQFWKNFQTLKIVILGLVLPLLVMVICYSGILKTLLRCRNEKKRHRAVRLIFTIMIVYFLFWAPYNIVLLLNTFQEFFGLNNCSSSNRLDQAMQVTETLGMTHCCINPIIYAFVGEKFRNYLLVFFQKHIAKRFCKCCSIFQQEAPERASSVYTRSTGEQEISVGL

B1: G-3-TNPO3 27-mer OVH chimera (mixed)
RNA 1: GGGAGGACGAUGCGGGCCUUCGUUUGUUUCGUCCACAGACGACUCGCCCGAUUCAAAGCCGACAUUGCAGCUCGUGUACC
RNA 2: UACACGAGCUGCAAUGUCGGCUUUG
modifications: 2'-F pyrimidines in sense strand (transcribed)
B1 gave an IC50 [1] of 0.0232 µM.

B2: G-3 aptamer (ssRNA)
RNA: GGGAGGACGAUGCGGGCCUUCGUUUGUUUCGUCCACAGACGACUCGCCCGA
modifications: 2'-F pyrimidines (2'-F-C, 2'-F-U)
B2 showed an IC50 [2] of 0.349 µM, an IC50 [3] of 0.22 µM and an IC50 [4] of 0.148 µM. The Kd [5] was 0.111 µM and the IC50 [6] was 0.048 µM.
